Assay results as given in patent publication US20230212549A1 (3B PHARMACEUTICALS, published 2023).
Where “and” joins values, the source holds several entries; their conditions need not be identical. Equal entries are not always repeated. Numbered stars: 1 amine (or outer) side, 2 acyl side, 3 side chain; on linkers, the order of the positions; unused ones are H or OH. Bridge positions count the residues as written; N and C are the ends. Square brackets hold non-standard residues; d marks the D form. Primed or numbered codes have the meaning given here. * marks the point of attachment. tMeBn(DOTA-PP) = 1,3,5-trimethylbenzylidene, two thioethers to Cys, third CH2 bound to one N of piperazine whose other N bears DOTA, O=C(O)CN1CCN(CC(=O)O)CCN(CC(=O)N2CCN(Cc3cc(C[*:1])cc(C[*:2])c3)CC2)CCN(CC(=O)O)CC1; Ttds″ = 1,13-diamino-4,7,10-trioxatridecan-succinamic acid spacer, O=C(CCC(=O)[*:2])NCCCOCCOCCOCCCN[*:1]; TBMB(SCH2CH2NH-DOTA) = O=C(O)CN1CCN(CC(=O)O)CCN(CC(=O)NCCSCc2cc(C[*:1])cc(C[*:2])c2)CCN(CC(=O)O)CC1; Ttds = 1,13-diamino-4,7,10-trioxatridecan-succinamic acid, O=C(CCC(=O)[*:2])NCCCOCCOCCOCCCN[*:1]; DOTA = O=C(O)CN1CCN(CC(=O)O)CCN(CC(=O)*)CCN(CC(=O)O)CC1; Oic = O=C(O)[C@@H]1C[C@@H]2CCCC[C@@H]2N1; mXylylene = c1cc(C[*:1])cc(C[*:2])c1; NMeF = CN[C@@H](Cc1ccccc1)C(=O)O; Nle = CCCC[C@H](N)C(=O)O; Hexanoyl = CCCCCC(=O)*; AEEA = NCCOCCOCC(=O)O; Inp = O=C(O)C1CCNCC1; Ahx = NCCCCCC(=O)O

Tests used:
[1] = target: Recombinant human FAP (R&D systems, #3715-SE) (human, UniProt Q12884 26-760); assay: cell-based or functional assay
[2] = target: T1, fibroblast activation protein (FAP) on FAP-expressing human WI-38 fibroblasts (human, UniProt Q12884 1-760); assay: competitive FACS, WI-38 cells, vs Cy5 tracer m3; C = pIC50 6.1-7.0
T1 construct: also called human FAP

[3] = target: T2, Recombinant human FAP (R&D systems, #3715-SE) (human, UniProt Q12884 26-760); assay: cell-based or functional assay; remark: listed apart in the source
[4] = target: T3, human fibroblast activation protein (FAP) on WI-38 fibroblasts (human, UniProt Q12884 1-760); assay: competitive FACS, WI-38 cells, Cy5-labeled peptide as competitor
T3 construct: FAP-expressing human WI-38 fibroblasts (ECACC)

[5] = target: T2, Recombinant human FAP (R&D systems, …); assay: SPR (Biacore T200), FAP captured on anti-FAP antibody, single cycle kinetics

| Binder | pIC50 Category (Activity) [1] | pIC50 Category (FACS) [2] | pIC50 Category (Activity) [3] [pIC50] | pIC50 Category (FACS) [4] [pIC50] | pKD Category [5] [pKD] |
| --- | --- | --- | --- | --- | --- |
| {DOTA}-[Ahx]CPPTEFCDH[NMeF]RD-NH2 (linker 2-8 via mXylylene; SMILES C[C@@H](O)[C@@H]1NC(=O)[C@@H]2CCCN2C(=O)[C@@H]2CCCN2C(=O)[C@@H](NC(=O)CCCCCNC(=O)CN2CCN(CC(=O)O)CCN(CC(=O)O)CCN(CC(=O)O)CC2)CSCc2cccc(c2)CSC[C@@H](C(=O)N[C@@H](CC(=O)O)C(=O)N[C@@H](Cc2c[nH]cn2)C(=O)N(C)[C@@H](Cc2ccccc2)C(=O)N[C@@H](CCCNC(=N)N)C(=O)N[C@@H](CC(=O)O)C(N)=O)NC(=O)[C@H](Cc2ccccc2)NC(=O)[C@H](CCC(=O)O)NC1=O, also called 3BP-3266) [DOTA-Ahx-[Cys(3MeBn)-Pro-Pro-Thr-Glu-Phe-Cys]-Asp-His-Nmf-Arg-Asp-NH2] | 6.1 pIC50 and 7 pIC50 | 6.1 pIC50 and 7 pIC50 | – | – | – |
| Hexanoyl-CPPTQFCD[Ttds″]K(DOTA)-NH2 (linker 1-7 via TBMB(SCH2CH2NH-DOTA); not fully specified (residue 1); printed as Hex-[Cys(tMeBn(DOTA-AET))-Pro-Pro-Thr-Gln-Phe-Cys]-Asp-Ttds-Lys(DOTA)-NH2, also called 3BP-4391) [Hex-[Cys(tMeBn(DOTA-AET))-Pro-Pro-Thr-Gln-Phe-Cys]-Asp-Ttds-Lys(DOTA)-NH2] | – | – | > 8 | > 8 | – |
| Ac-MCP[Oic]TEFCDHFRD-NH2 (linker 2-8 via mXylylene; SMILES CSCC[C@H](NC(C)=O)C(=O)N[C@H]1CSCc2cccc(c2)CSC[C@@H](C(=O)N[C@@H](CC(=O)O)C(=O)N[C@@H](Cc2c[nH]cn2)C(=O)N[C@@H](Cc2ccccc2)C(=O)N[C@@H](CCCNC(=N)N)C(=O)N[C@@H](CC(=O)O)C(N)=O)NC(=O)[C@H](Cc2ccccc2)NC(=O)[C@H](CCC(=O)O)NC(=O)[C@H]([C@@H](C)O)NC(=O)[C@@H]2C[C@@H]3CCCC[C@@H]3N2C(=O)[C@@H]2CCCN2C1=O, also called 3BP-3217) [Ac-Met-[Cys(3MeBn)-Pro-Oic-Thr-Glu-Phe-Cys]-Asp-His-Phe-Arg-Asp-NH2] | 6.1 pIC50 and 7 pIC50 | 6.1 pIC50 and 7 pIC50 | – | – | – |
| {DOTA}-[Inp]CPPTEFCDH[NMeF]RD-NH2 (linker 2-8 via mXylylene; SMILES C[C@@H](O)[C@@H]1NC(=O)[C@@H]2CCCN2C(=O)[C@@H]2CCCN2C(=O)[C@@H](NC(=O)C2CCN(C(=O)CN3CCN(CC(=O)O)CCN(CC(=O)O)CCN(CC(=O)O)CC3)CC2)CSCc2cccc(c2)CSC[C@@H](C(=O)N[C@@H](CC(=O)O)C(=O)N[C@@H](Cc2c[nH]cn2)C(=O)N(C)[C@@H](Cc2ccccc2)C(=O)N[C@@H](CCCNC(=N)N)C(=O)N[C@@H](CC(=O)O)C(N)=O)NC(=O)[C@H](Cc2ccccc2)NC(=O)[C@H](CCC(=O)O)NC1=O, also called 3BP-3265) [DOTA-Inp-[Cys(3MeBn)-Pro-Pro-Thr-Glu-Phe-Cys]-Asp-His-Nmf-Arg-Asp-NH2] | 6.1 pIC50 and 7 pIC50 | 6.1 pIC50 and 7 pIC50 | – | – | – |
| {DOTA}-[Ttds][Nle]CPPTQFCD[Ttds]K(DOTA)-NH2 (linker 3-9 via mXylylene; SMILES CCCC[C@H](NC(=O)CCC(=O)NCCCOCCOCCOCCCNC(=O)CN1CCN(CC(=O)O)CCN(CC(=O)O)CCN(CC(=O)O)CC1)C(=O)N[C@H]1CSCc2cccc(c2)CSC[C@@H](C(=O)N[C@@H](CC(=O)O)C(=O)NCCCOCCOCCOCCCNC(=O)CCC(=O)N[C@@H](CCCCNC(=O)CN2CCN(CC(=O)O)CCN(CC(=O)O)CCN(CC(=O)O)CC2)C(N)=O)NC(=O)[C@H](Cc2ccccc2)NC(=O)[C@H](CCC(N)=O)NC(=O)[C@H]([C@@H](C)O)NC(=O)[C@@H]2CCCN2C(=O)[C@@H]2CCCN2C1=O, also called 3BP-4393) [DOTA-Ttds-Nle-[Cys(3MeBn)-Pro-Pro-Thr-Gln-Phe-Cys]-Asp-Ttds-Lys(DOTA)-NH2] | – | – | > 8 | > 8 | – |
| Hexanoyl-CPPAAFCD-NH2 (linker 1-7 via tMeBn(DOTA-PP); SMILES CCCCCC(=O)N[C@H]1CSCc2cc(cc(CN3CCN(C(=O)CN4CCN(CC(=O)O)CCN(CC(=O)O)CCN(CC(=O)O)CC4)CC3)c2)CSC[C@@H](C(=O)N[C@@H](CC(=O)O)C(N)=O)NC(=O)[C@H](Cc2ccccc2)NC(=O)[C@H](C)NC(=O)[C@H](C)NC(=O)[C@@H]2CCCN2C(=O)[C@@H]2CCCN2C1=O, also called 3BP-3746) [Hex-[Cys(tMeBn(DOTA-PP))-Pro-Pro-Ala-Ala-Phe-Cys]-Asp-NH2] | – | – | – | ≤ 6 | – |
| {DOTA}-[AEEA]CPPTEFCDH[NMeF]RD-NH2 (linker 2-8 via mXylylene; SMILES C[C@@H](O)[C@@H]1NC(=O)[C@@H]2CCCN2C(=O)[C@@H]2CCCN2C(=O)[C@@H](NC(=O)COCCOCCNC(=O)CN2CCN(CC(=O)O)CCN(CC(=O)O)CCN(CC(=O)O)CC2)CSCc2cccc(c2)CSC[C@@H](C(=O)N[C@@H](CC(=O)O)C(=O)N[C@@H](Cc2c[nH]cn2)C(=O)N(C)[C@@H](Cc2ccccc2)C(=O)N[C@@H](CCCNC(=N)N)C(=O)N[C@@H](CC(=O)O)C(N)=O)NC(=O)[C@H](Cc2ccccc2)NC(=O)[C@H](CCC(=O)O)NC1=O, also called 3BP-3267) [DOTA-O2Oc-[Cys(3MeBn)-Pro-Pro-Thr-Glu-Phe-Cys]-Asp-His-Nmf-Arg-Asp-NH2] | 6.1 pIC50 and 7 pIC50 | 6.1 pIC50 and 7 pIC50 | – | – | – |
| Hexanoyl-CPPTEFC-OH (linker 1-7 via TBMB(SCH2CH2NH-DOTA); SMILES CCCCCC(=O)N[C@H]1CSCc2cc(CSCCNC(=O)CN3CCN(CC(=O)O)CCN(CC(=O)O)CCN(CC(=O)O)CC3)cc(c2)CSC[C@@H](C(=O)O)NC(=O)[C@H](Cc2ccccc2)NC(=O)[C@H](CCC(=O)O)NC(=O)[C@H]([C@@H](C)O)NC(=O)[C@@H]2CCCN2C(=O)[C@@H]2CCCN2C1=O, also called 3BP-4250) [Hex-[Cys-(tMeBn(DOTA-AET))-Pro-Pro-Thr-Glu-Phe-Cys]-OH] | – | – | – | > 8 | > 8 |
